# Patent publication US20240043559A1 (SHANGHAI HENLIUS BIOTECH, published 2024)
# B1: 1B01 llama-human chimeric bivalent VHH-Fc (Fc fusion)
# chain: QVQLQESGGGLVQAGGSLRLSCAAVGLPFSNYAMGWFRQAPGEEREFVSAVSANGGNEYYADSVKDRFTISRDNAKNTVYLRMLSLKLEDTAIYYCATVRRRGGTFTVGSYRGQGTQVTVSS
# notes: also called Clone 1B01; 1B01 llama VHH; not shown: human IgG1 Fc fused to the C-terminal of the VHH
# Key:
# [1] = target: recombinant human GPC3 protein (human) (UniProt P51654); assay: ELISA on plate-coated human GPC3
# [2] = target: human GPC3 expressed endogenously on hepatoma cells (HepG2, Hep3B) (human) (UniProt P51654); assay: flow cytometry on Hep3B cells (endogenous GPC3)
# [3] = target: human GPC3 expressed endogenously on hepatoma cells (HepG2, Hep3B) (human) (UniProt P51654); assay: flow cytometry on HepG2 cells (endogenous GPC3)
# [4] = target: T1, human GPC3 expressed endogenously on hepatoma cells (HepG2, Hep3B) (human, UniProt P51654 25-554); assay: flow cytometry on HepG2 cells (endogenous GPC3)
# T1 construct: also called GPC3 on HepG2; GPC3 on Hep3B
# T1 sequence (P51654 other isoform, or with tags, fused parts or gaps limits assumed, form in doubt): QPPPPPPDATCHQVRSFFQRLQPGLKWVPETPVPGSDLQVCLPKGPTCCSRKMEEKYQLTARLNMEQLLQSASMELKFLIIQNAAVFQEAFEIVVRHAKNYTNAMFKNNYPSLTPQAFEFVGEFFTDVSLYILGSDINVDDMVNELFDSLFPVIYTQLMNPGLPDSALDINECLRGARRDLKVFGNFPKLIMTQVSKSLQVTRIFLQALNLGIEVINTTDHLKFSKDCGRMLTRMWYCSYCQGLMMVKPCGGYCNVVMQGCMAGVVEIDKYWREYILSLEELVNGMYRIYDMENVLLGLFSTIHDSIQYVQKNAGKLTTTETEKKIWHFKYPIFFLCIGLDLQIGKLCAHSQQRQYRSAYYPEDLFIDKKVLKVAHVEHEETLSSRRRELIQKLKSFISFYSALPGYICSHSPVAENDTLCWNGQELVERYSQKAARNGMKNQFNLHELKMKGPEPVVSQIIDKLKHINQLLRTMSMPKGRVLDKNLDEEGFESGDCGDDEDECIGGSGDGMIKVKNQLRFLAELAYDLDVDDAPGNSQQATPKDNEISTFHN
# human GPC3 expressed endogenously on hepatoma cells (HepG2, Hep3B) (human), sequence (P51654 other isoform, or with tags, fused parts or gaps limits assumed, form in doubt): as above
# recombinant human GPC3 protein (human), sequence (P51654 other isoform, or with tags, fused parts or gaps limits assumed, form in doubt): as above
Molecule,EC50 (read off the curve) [1] [µg/mL],EC50 (read off the curve) [2] [nM],EC50 (read off the curve) [3] [nM],EC50 (read off the curve) [4] [nM]
HN3 VHH-Fc (Fc fusion),0.02,2,2,
B1,,,,~0.3
